In the RNAGym collection of RNA variant scans (doi:10.7554/elife.90254):

B1: LINE1-mini (parent)
chain: GGCAGAGCUCAACACAGCGUGGCAAAGUGGCUGUGGCUAGACUGCC

Variants of: B1
Test: self-cleavage, relative activity (ratio to wild type); higher = more cleavage; in vitro, sequencing; the parent is a self-cleaving ribozyme

Variant	self-cleavage
U34C G35C	0.06
U34C G35A	0.05
U34C G35U	0.18
U34A C46G	0.08
U34A C46A	0.06
U34A C46U	0.09
G33U G40U	0.14
G33U G40A	0.03
G33U G40C	0.05
U34C G44C	0.11
U34C G44U	0.09
U34C G44A	0.12
U34G U38G	0.03
U34G U38C	0.16
U34G U38A	0.3
G33U G44U	0.07
G33U G44C	0.06
G33U G44A	0.07
G35A G40A	0.07
G35A G40U	0.05
G35A G40C	0.08
G35C G44A	0.09
G35C G44U	0.06
G35C G44C	0.05

Variant	self-cleavage
G35A U43A	0.09
G35A U43C	0.07
G35A U43G	0.03
U34C U38G	0.06
U34C U38A	0.11
U34C U38C	0.07
G35A C37A	0.14
G35A C37U	0.06
G35A C37G	0.02
G36A U43C	0.31
G36A U43A	0.07
G36A U43G	0.01
U34G A39C	0.05
U34G A39G	0.07
U34G A39U	0.09
G36A A41C	0.05
G36A A41G	0.2
G36A A41U	0.44
G36A C45A	0.14
G36A C45G	0.13
G36A C45U	0.8
G36U G40C	0.09
G36U G40A	0.13
G35C U38G	0.02

Variant	self-cleavage
G35C U38C	0.05
G35C U38A	0.16
G35U A39U	0.1
G35U A39C	0.11
G35U A39G	0.22
U34G G44U	0.07
U34G G44C	0.07
U34G G44A	0.04
U34A C45U	0.11
U34A C45G	0.15
U34A C45A	0.08
G33U A39U	0.15
G33U A39C	0.07
G33U A39G	0.12
G35A C45A	0.13
G35A C45G	0.13
G35A C45U	0.13
U34G U43C	0.07
U34G U43A	0.21
G36A G44A	0.43
G36A G44C	0.15
G36A G44U	0.15
G33U G36U	0.05
G33U G36C	0.05

Variant	self-cleavage
G33U G36A	0.08
G33U C45U	0.08
G33U C45A	0.05
G33U C45G	0.07
G35A A41C	0.04
G35A A41G	0.05
G35A A41U	0.14
U34C C37A	0.09
U34C C37G	0.04
U34C C37U	0.05
G35C G40C	0.08
G35C G40U	0.09
G35C G40A	0.1
U34A C42G	0.04
U34A C42A	0.05
U34A C42U	0.05
G36C C46G	0.08
G36C C46U	0.05
G36C C46A	0.13
U34A G40C	0.04
U34A G40A	0.09
U34A G40U	0.06
G35A C42A	0.06
G35A C42U	0.09

Variant	self-cleavage
G35A C42G	0.04
G36C G44A	0.04
G36C G44U	0.08
G36C G44C	0.11
G35A G44A	0.1
G35A G44U	0.09
G35A G44C	0.07
U34G A41U	0.17
U34G A41C	0.04
U34G A41G	0.05
G33U U43C	0.08
G33U U43A	0.12
G33U U43G	0.02
G35C A39C	0.13
G35C A39G	0.09
G35C A39U	0.06
U34G G40U	0.05
U34G G40A	0.03
U34G G40C	0.07
U34G	0.24
U34C	0.13
U34A	0.1
G36U C46U	0.1
G36U C46A	0.1

Variant	self-cleavage
G36U C46G	0.08
G36U C45A	0.15
G36U C45G	0.12
G36U C45U	0.11
G35C C42G	0.04
G35C C42U	0.05
G35C C42A	0.1
U34G C37U	0.1
U34G C37G	0.07
U34G C37A	0.06
G35C G36A	0.05
G35C G36U	0.09
G35C G36C	0.03
G36U A39C	0.08
G36U A39U	0.07
G36U A39G	0.05
U34G C46U	0.19
U34G C46A	0.18
U34G C46G	0.14
G33U A41C	0.06
G33U A41U	0.09
G33U A41G	0.07
G35U C46G	0.09
G35U C46A	0.11

Variant	self-cleavage
G35U C46U	0.1
G35A U38C	0.06
G35A U38A	0.1
G35A U38G	0.02
G35A C46A	0.11
G35A C46U	0.1
G35A C46G	0.15
G36A C46G	0.34
G36A C46A	0.14
G36A C46U	0.26
U34C U43A	0.11
U34C U43C	0.04
U34C U43G	0.31
U34A A41G	0.05
U34A A41U	0.05
U34A A41C	0.03
G35C C37G	0.09
G35C C37U	0.03
G35C C37A	0.08
G36A U38G	0.03
G36A U38C	0.12
G36A U38A	0.08
G36C G40C	0.08
